Laboratory results published in the Human Domainome abundance scans (Beltran et al. 2025).
± gives the uncertainty stated by the source.

B1: Ankyrin-1, residues 1405 to 1484; numbered along this chain, P16157 (parent)
chain: MKMAVISEHLGLSWAELARELQFSVEDINRIRVENPNSLLEQSVALLNLWVIREGQNANMENLYTALQSIDRGEIVNMLE

Variants of: B1
Experiment: abundance fitness (aPCA) (normalised: wild type 0, dead -1); higher = more abundant; growth selection in yeast, the domain comes from the species named
Conditions: Homo sapiens
In the case of MKMAVISEHLGLSWAELARELQFSVEMINRIRVENPNSLLEQSVALLNLWVIREGQNANMENLYTALQSIDRGEIVNMLE, the abundance fitness is reported as -0.213 ± 0.14. Work on MKMAVISEHLGLSWAELARELQFSVEGINRIRVENPNSLLEQSVALLNLWVIREGQNANMENLYTALQSIDRGEIVNMLE yielded an abundance fitness of -0.573 ± 0.081. Work on MKMAVISEHLGLSWAELARELQFSVEDINRIRVENPNSLLEQSVALLNLWVIRDGQNANMENLYTALQSIDRGEIVNMLE yielded an abundance fitness of -0.3 ± 0.1. With MKMAVISEHLGLSWAELARELQFSVEDINRIRVENPNSLLEQSVALLNLWVIREGQCANMENLYTALQSIDRGEIVNMLE the abundance fitness was -0.168 ± 0.21. Work on MKMAVISEHLGLSWAELARELQFSVEDINRIRVENPNSLLEQSVALLNLWVIREGQVANMENLYTALQSIDRGEIVNMLE yielded an abundance fitness of -0.068 ± 0.095. For MKMAVISEHLGLSWAELARELQFSVEDINRIRVENPNSLLEQSVALLNLWVIREGQHANMENLYTALQSIDRGEIVNMLE, the abundance fitness was -0.255 ± 0.29. MKMAVISEHLGLSWAELARELQFSVEDINRIRVENPNSLLEQSVALLNLWVIREIQNANMENLYTALQSIDRGEIVNMLE showed an abundance fitness of -0.687 ± 0.32. MKMAVISEHLGLSWAELARELQFSVEDINRIRVENPNSLLEQSVALCNLWVIREGQNANMENLYTALQSIDRGEIVNMLE showed an abundance fitness of -0.061 ± 0.083. For MKMAVISEHLGLSWAELARELQFSVEDINRIRVENPNSLLEQSVALGNLWVIREGQNANMENLYTALQSIDRGEIVNMLE, the abundance fitness was -0.521 ± 0.066. MKMAVISEHLGLSWAELARELQFSVEDINRIRVENPNSLLEQSVALLNLWVIREGQNANMENLYTALQSRDRGEIVNMLE showed an abundance fitness of -0.437 ± 0.078. MKMAVISEHLGLSWAELARELQFSVEDINRIRVENPNSLLEQSVALLDLWVIREGQNANMENLYTALQSIDRGEIVNMLE showed an abundance fitness of 0.154 ± 0.081. MKMAVISEHLGLSWAELARELQFSVEDINRIRVENPNSLLEQSVALLNLWVIREGQNANMENLYTALQSIDRGEIVNGLE showed an abundance fitness of -0.085 ± 0.065. Variant MKMAVISEHLGLSWAELARELQFSVKDINRIRVENPNSLLEQSVALLNLWVIREGQNANMENLYTALQSIDRGEIVNMLE has an abundance fitness of -0.059 ± 0.073. Work on MKMAVISEHLGLSWAELARELQRSVEDINRIRVENPNSLLEQSVALLNLWVIREGQNANMENLYTALQSIDRGEIVNMLE yielded an abundance fitness of -0.833 ± 0.085. With MKMAVISEHLGLSWAELARELQFSVEDINRIRVENPNSLLEQSGALLNLWVIREGQNANMENLYTALQSIDRGEIVNMLE the abundance fitness was 0.046 ± 0.039. MKMAVISEHLGLSWAELARELQFSVEDINRIRVENPNSLLEQSTALLNLWVIREGQNANMENLYTALQSIDRGEIVNMLE gave an abundance fitness of 0.161 ± 0.081. Work on MKIAVISEHLGLSWAELARELQFSVEDINRIRVENPNSLLEQSVALLNLWVIREGQNANMENLYTALQSIDRGEIVNMLE yielded an abundance fitness of 0.127 ± 0.11. Work on MKQAVISEHLGLSWAELARELQFSVEDINRIRVENPNSLLEQSVALLNLWVIREGQNANMENLYTALQSIDRGEIVNMLE yielded an abundance fitness of -0.197 ± 0.099. MKMAVISEHLGLSWAELARELQFSVEDINRIRVENPNSLLEQSVALLNLWVIREGQNANMEILYTALQSIDRGEIVNMLE showed an abundance fitness of 0.089 ± 0.089. In the case of MKMAVISEHLGLSWAELARELQFSVEDINRIRVENPNSLLEQSVALLNLWVIREGQNANMENLYTALQSIDHGEIVNMLE, the abundance fitness is reported as -0.15 ± 0.14. Variant MKMAVISEHLGLSWAELARELQFSVEDINRIRVENPNSLLEYSVALLNLWVIREGQNANMENLYTALQSIDRGEIVNMLE has an abundance fitness of -0.864 ± 0.28. Work on MKMAVISEHLGLSWAELARELQFSVEDINRIRVENPNSLLEWSVALLNLWVIREGQNANMENLYTALQSIDRGEIVNMLE yielded an abundance fitness of -0.794 ± 0.17. Work on MKMAVISEHLGLSWAELARELQFSVEDINRIRVENPNSLLEQSVALLNLWVIREGQNANMENLYTALQSIDRKEIVNMLE yielded an abundance fitness of -0.289 ± 0.079. Work on MKMAVISEHLGLSWAELARELQFSVEDIMRIRVENPNSLLEQSVALLNLWVIREGQNANMENLYTALQSIDRGEIVNMLE yielded an abundance fitness of -0.075 ± 0.068. Variant MKMAVISEHLGLSWAELARELQFSVEDINRIRVENPNSLLEQSVAQLNLWVIREGQNANMENLYTALQSIDRGEIVNMLE has an abundance fitness of -1.13 ± 0.41. Variant MKMAVISEHLGLSWAELARELQFSVEDINRIRVENPNSLLEQSVAPLNLWVIREGQNANMENLYTALQSIDRGEIVNMLE has an abundance fitness of -0.891 ± 0.23. MKMAVISEHLGLSWAELARELQFSVEDINRIRVENPNSLLEQSVALLNLWVIREGQNALMENLYTALQSIDRGEIVNMLE showed an abundance fitness of -0.2 ± 0.1. With MKMAVISSHLGLSWAELARELQFSVEDINRIRVENPNSLLEQSVALLNLWVIREGQNANMENLYTALQSIDRGEIVNMLE the abundance fitness was -0.18 ± 0.061. For MKMAVISKHLGLSWAELARELQFSVEDINRIRVENPNSLLEQSVALLNLWVIREGQNANMENLYTALQSIDRGEIVNMLE, the abundance fitness was 0.075 ± 0.14. In the case of MKMAVISEHLGLSWAELARELQFSVEDINRIRVENPNSLLEQSVALLNLWVIREGQNLNMENLYTALQSIDRGEIVNMLE, the abundance fitness is reported as 0.157 ± 0.063. With MKMAVISEHLLLSWAELARELQFSVEDINRIRVENPNSLLEQSVALLNLWVIREGQNANMENLYTALQSIDRGEIVNMLE the abundance fitness was -0.447 ± 0.11. Work on MKMAVISEHLGLSWAELARELQFSVEDINRIRVENPDSLLEQSVALLNLWVIREGQNANMENLYTALQSIDRGEIVNMLE yielded an abundance fitness of -0.023 ± 0.13. With MKMAVISEHLGLSWAELARELQFSVEDINRIRVENPGSLLEQSVALLNLWVIREGQNANMENLYTALQSIDRGEIVNMLE the abundance fitness was -0.166 ± 0.093. With MKMAVISEHLGLSWAELARELQFSVEDINRIRVENPASLLEQSVALLNLWVIREGQNANMENLYTALQSIDRGEIVNMLE the abundance fitness was -0.025 ± 0.093.
